Read-outs that look alike come from different tables or passages of the source.
Key:
[1] = target: T1, mouse FcγRIII (mouse, UniProt P08508 31-215); experiment: SPR (Biacore T100/T200): FcγR injected over the antibody held by human FcRn immobilised on a CM4 chip (simultaneous binding), pH 7.4, 25 C
T1 construct: bought; also called mFcgRIII; mFcgR III
T1 sequence (looked up): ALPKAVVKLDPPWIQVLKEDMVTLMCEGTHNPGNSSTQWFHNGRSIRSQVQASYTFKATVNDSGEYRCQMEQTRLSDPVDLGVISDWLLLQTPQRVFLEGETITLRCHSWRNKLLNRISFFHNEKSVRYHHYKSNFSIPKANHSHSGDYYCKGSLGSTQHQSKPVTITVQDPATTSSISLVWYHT

[2] = target: T2, mouse FcγRIIb (mouse, UniProt P08101 30-207, limits assumed); experiment: as above
T2 construct: bought; also called mFcgRIIb; mFcgR IIb
T2 sequence (looked up): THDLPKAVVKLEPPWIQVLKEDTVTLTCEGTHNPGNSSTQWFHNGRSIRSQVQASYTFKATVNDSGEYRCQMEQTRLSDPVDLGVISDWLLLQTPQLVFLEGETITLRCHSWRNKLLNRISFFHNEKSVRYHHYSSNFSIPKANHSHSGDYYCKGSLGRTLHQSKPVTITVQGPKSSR

[3] = target: T3, human FcγRIIb (human, UniProt P31994 43-217, limits assumed); experiment: as above
T3 construct: also called hFcgRIIb; FcγIIB
T3 sequence: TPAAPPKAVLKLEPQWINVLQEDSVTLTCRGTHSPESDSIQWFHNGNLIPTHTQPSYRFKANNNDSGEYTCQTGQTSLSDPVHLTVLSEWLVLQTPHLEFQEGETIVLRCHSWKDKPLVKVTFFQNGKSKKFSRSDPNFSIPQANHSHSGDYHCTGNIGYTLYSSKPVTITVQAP

[4] = target: T4, mouse FcγRI (mouse, UniProt P26151 25-297); experiment: as above
T4 construct: bought; also called mFcgRI; mFcgR 1
T4 sequence (looked up): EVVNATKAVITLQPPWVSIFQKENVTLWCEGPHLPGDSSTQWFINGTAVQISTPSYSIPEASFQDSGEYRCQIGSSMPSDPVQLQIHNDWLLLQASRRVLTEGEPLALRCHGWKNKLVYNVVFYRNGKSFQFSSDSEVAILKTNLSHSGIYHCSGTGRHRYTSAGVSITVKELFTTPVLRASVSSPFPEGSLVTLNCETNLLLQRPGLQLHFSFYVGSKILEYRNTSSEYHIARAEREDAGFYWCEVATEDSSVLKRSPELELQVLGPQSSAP

[5] = target: T5, mouse FcγRIV (mouse, UniProt A0A0B4J1G0 21-203); experiment: as above
T5 construct: bought; also called mFcgRIV; mFcgR IV; the vendor's purification tag not given
T5 sequence: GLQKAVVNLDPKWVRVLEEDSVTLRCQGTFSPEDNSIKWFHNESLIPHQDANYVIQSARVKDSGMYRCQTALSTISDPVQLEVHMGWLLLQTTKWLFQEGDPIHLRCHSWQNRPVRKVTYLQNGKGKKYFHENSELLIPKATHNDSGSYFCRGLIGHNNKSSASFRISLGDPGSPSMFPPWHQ

[6] = target: T6, human FcγRIa (human, UniProt P12314 16-292, limits assumed); experiment: as above
T6 construct: also called hFcgRIa; hFcgRI

[7] = target: T7, human FcRn (soluble human FcRn complexed with β2-microglobulin) (human, UniProt P61769 21-119, limits assumed); experiment: SPR, antibody captured by Protein L, human FcRn as analyte, pH 7.0, 25 C
T7 construct: also called hFcRn

[8] = target: T5, mouse FcγRIV; experiment: SPR, antibody captured by Protein L, mouse FcγR as analyte, pH 7.4, 25 C
[9] = target: T1, mouse FcγRIII; experiment: as above
[10] = target: T2, mouse FcγRIIb; experiment: as above
[11] = target: T4, mouse FcγRI; experiment: as above
[12] = target: T7, human FcRn (soluble human FcRn …); experiment: SPR, antibody captured by Protein L, human FcRn as analyte, pH 7.0, 25 C; remark: listed apart in the source
[13] = target: T6, human FcγRIa; experiment: SPR, antibody captured by Protein L, human FcγR as analyte, pH 7.4, 25 C
[14] = target: T8, human FcγRIIa(H) (human, UniProt P12318 36-217); experiment: as above
T8 construct: also called hFcgRIIa(H); FcγRIIa type H
T8 sequence: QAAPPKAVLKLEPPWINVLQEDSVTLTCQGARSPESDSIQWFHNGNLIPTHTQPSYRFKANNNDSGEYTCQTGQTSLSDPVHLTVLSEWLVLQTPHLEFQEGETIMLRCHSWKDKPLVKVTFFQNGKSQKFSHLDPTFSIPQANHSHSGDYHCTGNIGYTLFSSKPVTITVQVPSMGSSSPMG

[15] = target: T9, human FcγRIIa(R) (human, UniProt P12318 36-217); experiment: as above
T9 construct: also called hFcgRIIa(R); FcγRIIa type R
T9 chain: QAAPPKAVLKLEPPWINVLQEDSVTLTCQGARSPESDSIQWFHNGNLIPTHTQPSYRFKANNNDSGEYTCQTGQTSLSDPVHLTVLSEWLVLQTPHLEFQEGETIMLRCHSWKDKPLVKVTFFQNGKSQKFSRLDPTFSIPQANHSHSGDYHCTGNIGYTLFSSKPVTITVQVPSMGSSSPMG

[16] = target: T3, human FcγRIIb; experiment: as above
[17] = target: T1, mouse FcγRIII; experiment: SPR (Biacore T100/T200): FcγR injected over the antibody held by mouse FcRn immobilised on a CM4 chip (simultaneous binding), pH 7.4, 25 C
[18] = target: T2, mouse FcγRIIb; experiment: as above
[19] = target: T5, mouse FcγRIV; experiment: SPR (Biacore T100/T200): FcγR injected over the antibody held by mouse FcRn immobilised on a CM4 chip, pH 7.4, 25 C
[20] = target: T4, mouse FcγRI; experiment: as above

T6 sequence (P12314 16-292 limits assumed): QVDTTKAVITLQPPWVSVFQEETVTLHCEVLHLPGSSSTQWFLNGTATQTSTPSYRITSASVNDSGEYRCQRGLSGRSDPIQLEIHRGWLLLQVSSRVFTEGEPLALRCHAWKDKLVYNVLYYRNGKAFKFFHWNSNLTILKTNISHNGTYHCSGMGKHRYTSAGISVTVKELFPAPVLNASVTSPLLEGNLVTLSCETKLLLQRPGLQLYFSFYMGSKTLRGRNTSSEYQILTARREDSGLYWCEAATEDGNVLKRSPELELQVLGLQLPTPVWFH
T7 sequence (chain, as listed by the source limits assumed, chain 1 of 2): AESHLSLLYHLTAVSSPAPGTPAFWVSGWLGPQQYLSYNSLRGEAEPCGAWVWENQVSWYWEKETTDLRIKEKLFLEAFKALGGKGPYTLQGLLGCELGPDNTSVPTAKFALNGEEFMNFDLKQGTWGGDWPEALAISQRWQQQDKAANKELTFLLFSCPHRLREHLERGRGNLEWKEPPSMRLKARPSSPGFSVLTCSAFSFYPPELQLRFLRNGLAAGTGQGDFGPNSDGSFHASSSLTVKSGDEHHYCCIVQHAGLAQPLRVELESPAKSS
T7 sequence (P61769 21-119 limits assumed, chain 2 of 2): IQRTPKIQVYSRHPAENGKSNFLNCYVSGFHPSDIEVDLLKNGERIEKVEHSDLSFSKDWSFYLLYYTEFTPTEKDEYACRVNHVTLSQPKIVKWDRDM

B1: Fv4-IgG1-F157 (VH3-IgG1-F157 and VL3-CK) (antibody)
heavy: QVQLQESGPGLVKPSETLSLTCAVSGHSISHDHAWSWVRQPPGEGLEWIGFISYSGITNYNPSLQGRVTISRDNSKNTLYLQMNSLRAEDTAVYYCARSLARTTAMDYWGEGTLVTVSSASTKGPSVFPLAPSSKSTSGGTAALGCLVKDYFPEPVTVSWNSGALTSGVHTFPAVLQSSGLYSLSSVVTVPSSSLGTQTYICNVNHKPSNTKVDKKVEPKSCDKTHTCPPCPAPELLGGPSVFLFPPKPKDTLMISRTAEVTCVVVDVSHEDPEVKFNWYVDGVEVHNAKTKPREEQYNSTYRVVSVLTPLHQDWLNGKEYKCKVSNKALPAPIEKTISKAKGQPREPQVYTLPPSRDELTKNQVSLTCLVKGFYPSDIAVEWESNGQPENNYKTTPPVLDSDGSFFLYSKLTVDKSRWQQGNVFSCSVLHEALHYHYTQKSLSLSP
light: DIQMTQSPSSLSASVGDSVTITCQASTDISSHLNWYQQKPGKAPELLIYYGSHLLSGVPSRFSGSGSGTDFTFTISSLEAEDAATYYCGQGNRLPYTFGQGTKVEIERTVAAPSVFIFPPSDEQLKSGTASVVCLLNNFYPREAKVQWKVDNALQSGNSQESVTEQDSKDSTYSLSSTLTLSKADYEKHKVYACEVTHQGLSSPVTKSFNRGEC
notes: copies: 2 + 2
binding result [1]: binds | binding result [2]: binds | binding result [3]: binds | binding result [4]: binds | binding result [5]: binds | binding result [6]: binds

B2: VH3/L(WT)-IgG1-F21 (VH3-IgG1-F21 heavy chain, L(WT)-CK light chain) (antibody)
heavy: QVQLQESGPGLVKPSETLSLTCAVSGHSISHDHAWSWVRQPPGEGLEWIGFISYSGITNYNPSLQGRVTISRDNSKNTLYLQMNSLRAEDTAVYYCARSLARTTAMDYWGEGTLVTVSSASTKGPSVFPLAPSSKSTSGGTAALGCLVKDYFPEPVTVSWNSGALTSGVHTFPAVLQSSGLYSLSSVVTVPSSSLGTQTYICNVNHKPSNTKVDKKVEPKSCDKTHTCPPCPAPELLGGPSVFLFPPKPKDTLYISRTPEVTCVVVDVSHEDPEVKFNWYVDGVEVHNAKTKPREEQYNSTYRVVSVLTPLHQDWLNGKEYKCKVSNKALPAPIEKTISKAKGQPREPQVYTLPPSRDELTKNQVSLTCLVKGFYPSDIAVEWESNGQPENNYKTTPPVLDSDGSFFLYSKLTVDKSRWQQGNVFSCSVMHEALHYHYTQKSLSLSP
light: not shown
notes: M252Y/V308P/N434Y; copies: 2 + 2
Kd [7]: 30 nM | BINDING AMOUNT (RU) [8]: 242 RU | BINDING AMOUNT (RU) [9]: 371 RU | BINDING AMOUNT (RU) [10]: 112 RU | BINDING AMOUNT (RU) [11]: 315 RU | Kd [12]: 30 nM | BINDING AMOUNT (RU) [13]: 403 RU | BINDING AMOUNT (RU) [14]: 154 RU | BINDING AMOUNT (RU) [15]: 145 RU | BINDING AMOUNT (RU) [16]: 63.4 RU

B3: mPM1-mIgG1-mF3 (mPM1H-mIgG1-mF3 and mPM1L-mk1) (antibody)
heavy: DVQLQESGPVLVKPSQSLSLTCTVTGYSITSDHAWSWIRQFPGNKLEWMGYISYSGITTYNPSLKSRISITRDTSKNQFFLQLNSVTTGDTSTYYCARSLARTTAMDYWGQGTSVTVSSAKTTPPSVYPLAPGSAAQTNSMVTLGCLVKGYFPEPVTVTWNSGSLSSGVHTFPAVLQSDLYTLSSSVTVPSSTWPSETVTCNVAHPASSTKVDKKIVPRDCGCKPCICTVPEVSSVFIFPPKPKDVLYITLEPKVTCVVVDISKDDPEVQFSWFVDDVEVHTAQTQPREEQFNSTFRSVSELPIMHQDWLNGKEFKCRVNSAAFPAPIEKTISKTKGRPKAPQVYTIPPPKEQMAKDKVSLTCMITDFFPEDITVEWQWNGQPAENYKNTQPIMDTDGSYFVYSKLNVQKSNWEAGNTFTCSVLHEGLKFHHTEKSLSHSPGK
light: DIQMTQTTSSLSASLGDRVTISCRASQDISSYLNWYQQKPDGTIKLLIYYTSRLHSGVPSRFSGSGSGTDYSLTINNLEQEDIATYFCQQGNTLPYTFGGGTKLEIKRADAAPTVSIFPPSSEQLTSGGASVVCFLNNFYPKDINVKWKIDGSERQNGVLNSWTDQDSKDSTYSMSSTLTLTKDEYERHNSYTCEATHKTSTSPIVKSFNRNEC
notes: copies: 2 + 2
binding result [17]: binds | binding result [18]: binds | binding result [19]: no binding | binding result [20]: no binding

Source: patent US20200199241A1 (Chugai, published 2020)
